Data set [1] has as its system CLP-induced polymicrobial septic shock. As to the kind of experiment: Mouse survival after cecal ligation and puncture (CLP)-induced septic shock.
Method: CLP-induced septic shock was induced in 8-10 week old C57BL/6J male mice (20-25 g; Charles River) following previously reported methods (Rittirsch D, et al., 2009. Immunodesign of experimental sepsis by cecal ligation and puncture. Nat Protoc 4:31-36). The severity of the CLP model was adjusted to achieve a high-grade mortality (meaning ≥90% mortality in the first 48-72 h) by ligating 75% of cecum. Mice were anesthetized with 100 mg/kg ketamine (Imalgéne 1000, Merial) and 10 mg/kg xylazine (Rompun, Bayer) subsequently resuscitated with 1 mL saline serum intraperitoneally (i.p.). To mitigate pain effects, 0.05 mg/kg/12 h Buprenorphin was administered subcutaneously. […] Daily weight loss monitoring (usually was of 10-15% in the first 48 h post-CLP) allowed exclusion of animals not undergoing clinical sepsis.
The survival data were represented in Kaplan-Meier graphs and analysed by the Log-Rank χ^2 test. Statistical significant differences (P<0.01) were determined by 2-tailed non parametric Mann-Whitney test.
For data set [2], the system named is septic shock induced by G+ and G− bacterial endotoxins (LTA+PGN, and LPS) and whole alive bacteria (Staphylococcus aureus, Acinetobacter baumannii). Conditions: prophylactic infusion; mouse models of septic shock; cited from earlier work.
The test system of a further data set is LPS-induced septic shock. Conditions: intraperitoneal (i.p.) administration, mice; cited from earlier work.
Details of data set [3]: species or system C57BL/6J mice. Conditions: mouse, in vivo, 1.25 mg/kg. How it is done: (§1) Plasma levels of rshCD6 were determined by sandwich ELISA, using unlabelled (161.8) and biotin-labelled (SPV-L14.2) anti-CD6 monoclonal antibodies (2 μg/mL, each) as capture and detection antisera, respectively. Serial dilutions of purified rshCD6 were used as a standard. Diluted or undiluted plasma samples were used for monitoring IL-6 (1:70; Mouse IL-6 ELISA Set, BD Bioscience-555240), TNF-α (1:10; Mouse TNF-α ELISA Set, BD Bioscience-558534), IL-10 (neat; Mouse IL-10 ELISA Set, BD Bioscience-555252), and IL-1β (neat; Mouse IL-1β ELISA Set, BD Bioscience-559603) levels by commercially available ELISA kits, following manufacturer's instructions. Plates were developed with horseradish peroxidase-labeled streptavidin (Roche Diagnostics) and TMB Substrate Reagent Set (BD OptEIA, BD Biosciences), and further measurement of optical density at 450 nm (OD450 nm).

Data set [4] has as its system pro- (TNF-α, IL-1β, IL-6) and anti- (IL-10) inflammatory cytokines. Kind of data set: ELISA of cytokine plasma levels post CLP-induced septic shock. The data set is classed as in vivo, C57BL/6J mice. The procedure: as §1
A general note: In an ELISA, binding on a coated surface is turned into a signal by an enzyme label.

In a further data set the test system is bacterial load. Kind of data set: Bacterial load (cfu) post CLP-induced septic shock. The data set is classed as in vivo, C57BL/6J mice. The procedure: Blood samples were taken from live mice by facial vein puncture at 4 h post-CLP. Peritoneal, spleen and kidney samples were obtained from euthanized mice at 20 h post-CLP. For peritoneal lavage, euthanized mice were i.p. infused with 3 mL cold PBS. After gently abdominal massaging for 5 min, the peritoneal fluid was collected taking care to avoid clogging by the fat tissue and not to damage internal organs. Blood-contaminated peritoneal samples were discarded. The collected peritoneal fluid was centrifuged (3500 rpm, 10 min at 4° C.) and the pellet resuspended in 200 μL PBS. Spleen (100 mg) and kidney (250 mg) homogenization was performed by pressing the organs with a syringe plunger through a 40 μm cell strainer in 3 mL cold PBS. The resulting homogenates were centrifuged (3500 rpm, 10 min at 4° C.) and pellets resuspended in 750 μL PBS. Serial dilutions of blood, peritoneal lavage, and spleen and kidney homogenates were prepared in sterile PBS for plating on agar with 5% sheep blood (Becton Dikinson, UK) at 37° C. overnight. Viable bacterial counts were expressed as colony-forming units (cfu) per mL or mg.

The mark [5] stands for this setting: single dose 1.25 mg/kg i.p. 1 h before (−1 h) CLP induction, FIG. 1A.
Where [6] appears, read: prophylactic (−1 h) 1.25 mg/kg i.p., +4 h, +20 h post-CLP, FIG. 1C.
Setting [7] is: therapeutic (+1 h) 1.25 mg/kg i.p., 4 and 20 h post-CLP, FIG. 2C.
The mark [8] stands for this setting: prophylactic (−1 h) 1.25 mg/kg i.p., FIG. 1D.
The mark [9] stands for this setting: therapeutic (+1 h) 1.25 mg/kg i.p., FIG. 2D.

B1: rshCD5: purified recombinant soluble human CD5 protein, used as comparison protein (protein, UniProt P06127 25-372, looked up)
extracellular domain: RLSWYDPDFQARLTRSNSKCQGQLEVYLKDGWHMVCSQSWGRSSKQWEDPSQASKVCQRLNCGVPLSLGPFLVTYTPQSSIICYGQLGSFSNCSHSRNDMCHSLGLTCLEPQKTTPPTTRPPPTTTPEPTAPPRLQLVAQSGGQHCAGVVEFYSGSLGGTISYEAQDKTQDLENFLCNNLQCGSFLKHLPETEAGRAQDPGEPREHQPLPIQWKIQNSSCTSLEHCFRKIKPQKSGRVLALLCSGFQPKVQSRLVGGSSICEGTVEVRQGAQWAALCDSSSARSSLRWEEVCREQQCGSVNSYRVLDAGDPTSRGLFCPHQKLSQCHELWERNSYCKKVFVTCQDPNP
modifications: extracellular domain
Regarding B1, the survival in data set [1] (setting [5]) worked out at 11.11%.

B2: rshCD6: recombinantly obtained soluble human CD6 ectodomain (SEQ ID NO: 1) (protein, listed as Homo sapiens)
chain: DQLNTSSAESELWEPGERLPVRLTNGSSSCSGTVEVRLEASWEPACGALWDSRAAEAVCRALGCGGAEAASQLAPPTPELPPPPAAGNTSVAANATLAGAPALLCSGAEWRLCEVVEHACRSDGRRARVTCAENRALRLVDGGGACAGRVEMLEHGEWGSVCDDTWDLEDAHVVCRQLGCGWAVQALPGLHFTPGRGPIHRDQVNCSGAEAYLWDCPGLPGQHYCGHKEDAGVVCSEHQSWRLTGGADRCEGQVEVHFRGVWNTVCDSEWYPSEAKVLCQSLGCGTAVERPKGLPHSLSGRMYYSCNGEELTLSNCSWRFNNSNLCSQSLAARVLCSASRSLHNLSTPEVPASVQTVTIESSVTVKIENKESR
B2: in data set [2], the mortality result is given as “significantly reduces”; the “serum levels of pro-inflammatory cytokines (IL-1β, IL-6 and TNF-α)” value is reported as “significantly reduces”. Also, the “lethal effects caused by LPS-induced septic shock” value in the data set with LPS-induced septic shock was “counteracts the lethal effects”. Further, in data set [3], the “maximal plasma levels achieved via i.v. versus via i.p.” value is “higher”. Besides, in data set [3] (ip), the “time of decrease to nearly basal plasma levels” value is recorded as at most 6 h and the “time of maximal rshCD6 plasma levels” value came to 3 h. In data set [3] (iv), the “time of decline to nearly basal plasma levels” value was at most 6 h; the “time of maximal and sustained plasma levels” value was 1 to 3 h. For the same molecule, in data set [1] (i.p. 1 h before CLP, FIG. 1B), the “prophylactic dose giving statistical significant results on survival” value is “above 0.625 mg/kg” and the “prophylactic dose reaching maximal efficacy on survival” value stood at 2.5 mg/kg. The “optimal rshCD6 dose in mice” value in data set [1] (mice) was 1.25 to 2.50 mg/kg. In data set [1] (repeated dosage 1.25 mg/kg i.p. at +1 h, +3 h and +6 h post-CLP, FIG. 2B), this molecule displayed a survival of 26.32%. The same molecule came in with a survival in data set [1] (setting [5]) of 47.06%. This molecule registered a survival in data set [1] (single dose 1.25 mg/kg i.v. at +1 h post-CLP, FIG. 3B) of 30%. For the same molecule, the survival in data set [1] (single dose 1.25 mg/kg i.v. at +3 h post-CLP, FIG. 3B) is 20%. This molecule also showed a survival in data set [1] (single dose 1.25 mg/kg i.v. at +6 h post-CLP, FIG. 3B) of 40%. The molecule further showed a survival in data set [1] (single infusion 1.25 mg/kg i.p. at +1 h post-CLP, FIG. 2A) of 29.03%. The molecule also gave a survival in data set [1] (single infusion 1.25 mg/kg i.p. at +3 h post-CLP, FIG. 2A) of 14.28%. For the same molecule, the survival in data set [1] (single infusion 1.25 mg/kg i.p. at +6 h post-CLP, FIG. 2A) amounted to 17.65%. Further, in data set [4] (setting [6]), the “plasma level of IL-1β compared to saline-treated group” value is recorded as “significantly lowered”, the “plasma level of IL-6 compared to saline-treated group” value is “significantly lowered”, the “plasma level of IL-10 compared to saline-treated group” value was “higher levels” and the “plasma level of TNF-α compared to saline-treated group” value is recorded as “significantly lowered”. Also, in data set [4] (setting [7]), the “plasma level of IL-1β compared with saline-treated group” value is “lower pro-inflammatory cytokine levels, which reached statistical significance”; the “plasma level of IL-6 compared with saline-treated group” value is reported as “lower pro-inflammatory cytokine levels, which reached statistical significance”; the “plasma level of IL-10 compared with saline-treated group” value was “no differences observed”; the “plasma level of TNF-α compared with saline-treated group” value was “lower pro-inflammatory cytokine levels”. In the data set with bacterial load (setting [8]), the “bacterial load from blood compared to saline-treated group” value is “lowered”, the “bacterial load from kidney compared to saline-treated group” value is “lowered” and the “bacterial load from spleen compared to saline-treated group” value is on record as “lowered”. Besides, in the data set on bacterial load (setting [9]), the “bacterial load (cfu) from blood with regard to saline-treated group” value is given as “lower cfu”, the “bacterial load (cfu) from kidney with regard to saline-treated group” value is given as “lower cfu” and the “bacterial load (cfu) from spleen with regard to saline-treated group” value is listed as “lower cfu”.

The values above are taken from patent US11324804B2, “Combined CD6 and imipenem therapy for treatment of infectious diseases and related inflammatory processes” (Sepsia Therapeutics, S.L., priority 2016, dated 2022).
